System: T1, His-tagged full length BAAT1 (baculovirus, produced in Sf9 cells)
T1 sequence: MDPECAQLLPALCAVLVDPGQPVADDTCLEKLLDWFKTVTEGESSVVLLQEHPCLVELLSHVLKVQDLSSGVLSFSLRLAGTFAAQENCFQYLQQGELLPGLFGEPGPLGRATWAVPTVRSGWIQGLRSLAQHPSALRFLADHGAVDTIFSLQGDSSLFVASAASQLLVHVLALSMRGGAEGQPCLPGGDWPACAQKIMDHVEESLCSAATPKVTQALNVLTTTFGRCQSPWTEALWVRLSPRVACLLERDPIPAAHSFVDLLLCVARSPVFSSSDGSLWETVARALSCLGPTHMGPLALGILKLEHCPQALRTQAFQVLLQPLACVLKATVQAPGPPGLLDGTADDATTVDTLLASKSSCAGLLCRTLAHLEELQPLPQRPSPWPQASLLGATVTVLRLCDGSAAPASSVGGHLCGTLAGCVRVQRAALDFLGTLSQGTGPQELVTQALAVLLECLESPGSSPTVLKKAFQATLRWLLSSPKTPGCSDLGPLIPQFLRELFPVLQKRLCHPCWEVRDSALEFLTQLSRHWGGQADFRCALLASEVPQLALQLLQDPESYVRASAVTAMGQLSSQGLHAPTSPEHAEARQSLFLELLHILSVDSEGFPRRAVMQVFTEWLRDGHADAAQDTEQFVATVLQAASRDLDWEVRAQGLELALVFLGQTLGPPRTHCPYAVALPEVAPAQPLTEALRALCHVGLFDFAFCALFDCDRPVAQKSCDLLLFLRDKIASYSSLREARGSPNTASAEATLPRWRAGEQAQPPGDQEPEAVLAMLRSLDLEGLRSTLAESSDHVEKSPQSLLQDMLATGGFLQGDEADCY

Substance: ataxia telangiectasia mutated (endogenous, from human cell lysates)
- in vitro PP2A phosphatase assay on immunoprecipitated ATM, Ser1981 phosphorylation by immunoblot: dephosphorylation of ATM Ser1981 was partially blocked in the presence of full length, baculovirus produced BAAT1
